Test [1] has as its target full-length murine I-A^d/OVA 323-339 MHC class II fusion complex (pJRS165.1) expressed on NSO cells (mouse; chicken) (UniProt P04228). Description: flow cytometry, FITC-conjugated isotype control antibody 1:100 on clone NSO/IA^d/OVA.A4.
The target is the same in test [2]. Nature of the test: flow cytometry, FITC-conjugated isotype control antibody 1:100 on clone NSO/IA^d/OVA.B2.
The target is the same in test [3]. Nature of the test: flow cytometry, FITC-conjugated isotype control antibody 1:100 on clone NSO/IA^d/OVA.B4.
Test [4] has the same target. Description: flow cytometry, FITC-conjugated isotype control antibody 1:100 on clone NSO/IA^d/OVA.B5.
Test [5] has as its target murine class II MHC molecule I-A^d on A20.1-11 cells (mouse) (UniProt P04228). Description: flow cytometry, FITC-conjugated isotype control antibody 1:100 on A20.1-11 cells (positive control).
The target in test [6] is I-A^d on NSO parental cells (untransfected negative control, H-2^d background) (mouse) (UniProt P04228). Description: flow cytometry, FITC-conjugated isotype control antibody 1:100 on untransfected NSO cells (negative control).

From patent publication US7074904 come the findings set out here.

As for “FITC-conjugated anti-IA^k antibody (Pharmingen), isotype matched irrelevant antibody”, the peak channel fluorescence in test [1] was found to be 34 channel; in test [2] it was 14 channel; in test [3], 11 channel; in test [4] it was 10 channel; in test [5], 5 channel; in test [6], 5 channel.
